In patent publication US20210300993A1 (AVALON GLOBOCARE, published 2021):
Values belong to the binder of their own block, whether it stands above or below them.

Columns and labels:
IL10 [1] = biological target: T1, IL10 (UniProt P22301 19-178); test: MicroScale Thermophoresis (MST), fluorescently labelled receptor fusion titrated with IL10
Text: (§1) FIG. 3A-3D. MST ligand binding measurements. The receptors were labeled with fluorescent dye. The ligands were purchased commercially from and dissolved in di water. (FIG. 3A) IL4Rα^QTY-Fc with IL4; (FIG. 3B) IL10Rα^QTY-Fc with IL10; (FIG. 3C) IFNγR1^QTY-Fc with IFNγ; (FIG. 3D) […].
(§2) MicroScale Thermophoresis (MST) is an optical method detecting changes in thermophoretic movement and TRIC of the protein-attached fluorophore upon ligand binding. Active labelled proteins contribute to the thermophoresis signal upon ligand binding. […] Herein ligand binding experiments were carried out with 5 nM NT647-labeled protein in 1× PBS, 10 mM DTT buffer with different concentration of arginine, against a gradient of respective ligands on a Monolith NT.115 pico instrument at 25° C. Synthesized receptors were labeled with Monolith NT™ 2nd generation protein labeling kit RED-NHS (NanoTemper Technologies) so as to obtain unique fluorescent signals. MST time traces were recorded and analyzed to obtain the highest possible signal-to-noise levels and amplitudes, >5 Fnorm units. The recorded fluorescence was plotted against the concentration of ligand, and curve fitting was performed using the Kd fit formula derived from the law of mass action. For clarity, binding graphs of each independent experiment were normalized to the fraction bound (0=unbound, 1=bound). […]

IL10 [2] = biological target: T1, IL10; test: MicroScale Thermophoresis, 5 nM NT647-labeled receptor fusion against a gradient of ligand, 25 C
Protocol: (§3) The affinity of QTY modified cytokine receptor fused with Fc of IgG for their respective native ligands was measured using MicroScale Thermophoresis (MST). Changes in thermophoretic movement for labeled proteins upon ligand-binding were recorded and plotted as a function of ligand concentration.
(§4) MicroScale Thermophoresis (MST) is an optical method detecting changes in thermophoretic movement and TRIC of the protein-attached fluorophore upon ligand binding. Active labelled proteins contribute to the thermophoresis signal upon ligand binding. […] Herein ligand binding experiments were carried out with 5 nM NT647-labeled protein in 1× PBS, 10 mM DTT buffer with different concentration of arginine, against a gradient of respective ligands on a Monolith NT.115 pico instrument at 25° C. Synthesized receptors were labeled with Monolith NT™ 2nd generation protein labeling kit RED-NHS (NanoTemper Technologies) so as to obtain unique fluorescent signals. MST time traces were recorded and analyzed to obtain the highest possible signal-to-noise levels and amplitudes, >5 Fnorm units. The recorded fluorescence was plotted against the concentration of ligand, and curve fitting was performed using the Kd fit formula derived from the law of mass action. For clarity, binding graphs of each independent experiment were normalized to the fraction bound (0=unbound, 1=bound). MST experiments were performed in the Center for Macromolecular Interactions at Harvard Medical School.

IL29 [3] = biological target: T2, IL29 (UniProt Q8IU54 20-200, limits assumed); test: as above
T2 sequence (Q8IU54 20-200 limits assumed): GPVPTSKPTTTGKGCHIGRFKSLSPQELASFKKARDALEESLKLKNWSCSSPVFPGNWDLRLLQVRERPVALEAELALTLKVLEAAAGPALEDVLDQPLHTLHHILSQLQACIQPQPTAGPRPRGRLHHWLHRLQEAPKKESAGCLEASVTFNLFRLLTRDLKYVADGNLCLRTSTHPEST
Protocol: as §3, §4

IL29 [4] = biological target: T2, IL29; test: MicroScale Thermophoresis (MST), fluorescently labelled receptor fusion titrated with IL29
Text: as §1, §2

IFNγ [5] = biological target: T3, IFNγ (UniProt P01579 24-166, limits assumed); test: MicroScale Thermophoresis, 5 nM NT647-labeled receptor fusion against a gradient of ligand, 25 C
T3 sequence (looked up): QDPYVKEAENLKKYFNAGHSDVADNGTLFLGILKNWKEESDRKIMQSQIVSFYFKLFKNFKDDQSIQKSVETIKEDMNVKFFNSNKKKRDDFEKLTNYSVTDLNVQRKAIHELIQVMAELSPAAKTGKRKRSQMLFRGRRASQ
Protocol: as §3, §4

IFNγ [6] = biological target: T3, IFNγ; test: MicroScale Thermophoresis (MST), fluorescently labelled receptor fusion titrated with IFNγ
Text: as §1, §2

T1 sequence (P22301 19-178 limits assumed): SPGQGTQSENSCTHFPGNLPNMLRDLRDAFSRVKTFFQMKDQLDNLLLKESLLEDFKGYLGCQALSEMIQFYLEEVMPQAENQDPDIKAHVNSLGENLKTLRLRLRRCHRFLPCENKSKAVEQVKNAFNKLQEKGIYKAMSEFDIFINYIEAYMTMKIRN

- EC50 (read off the curve) (IL10 [1]): ~4 nM
- Kd (IL10 [2]): 1.6 nM
B1: IL10Rα^QTY-Fc (HUMAN Interleukin-10 receptor subunit alpha-Fc fusion) (Fc fusion)
chain: HGTELPSPPSVWFEAEFFHHILHWTPIPNQSESTCYEVALLRYGIESWNSISNCSQTLSYDLTAVTLDLYHSNGYRARVRAVDGSRHSNWTVTNTRFSVDEVTLTVGSVNLEIHNGFILGKIQLPRPKMAPANDTYESIFSHFREYEIAIRKVPGNFTFTHKKVKHENFSLLTSGEVGEFCVQVKPSVASRSNKGMWSKEECISLTRQYFTVTNTTTYYAYTQQQSGAQAYCQAQQLYVRRRKKTETSQVAPAHHHHHHHHHHGSKLVDPRGPTIKPCPPCKCPAPNLLGGPSVFIFPPKIKDVLMISLSPIVTCVVVDVSEDDPDVQISWFVNNVEVHTAQTQTHREDYNSTLRVVSALPIQHQDWMSGKEFKCKVNNKDLPAPIERTISKPKGSVRAPQVYVLPPPEEEMTKKQVTLTCMVTDFMPEDIYVEWTNNGKTELNYKNTEPVLDSDGSYFMYSKLRVEKKNWVERNSYSCSVVHEGLHNHHTTKSFSRTPGK
modifications: labeled with NT647 RED-NHS fluorescent dye for MST

- Kd (IL29 [3]): 11.5 nM
- EC50 (read off the curve) (IL29 [4]): ~10 nM
B2: IFNλR1^QTY-Fc (HUMAN Interferon lambda receptor 1-Fc fusion) (Fc fusion)
chain: RPRLAPPQNVTLLSQNFSVYLTWLPGLGNPQDVTYFVAYQSSPTRRRWREVEECAGTKELLCSMMCLKKQDLYNKFKGRVRTVSPSSKSPWVESEYLDYLFEVEPAPPVLVLTQTEEILSANATYQLPPCMPPLDLKYEVAFWKEGAGNKTLFPVTPHGQPVQITLQPAASEHHCLSARTIYTFSVPKYSKFSKPTCFLLEVPEANWAYQTQPSQQTQQQTTAAGGTTWKTLMGNTETSQVAPAHHHHHHHHHHGSKLVDPRGPTIKPCPPCKCPAPNLLGGPSVFIFPPKIKDVLMISLSPIVTCVVVDVSEDDPDVQISWFVNNVEVHTAQTQTHREDYNSTLRVVSALPIQHQDWMSGKEFKCKVNNKDLPAPIERTISKPKGSVRAPQVYVLPPPEEEMTKKQVTLTCMVTDFMPEDIYVEWTNNGKTELNYKNTEPVLDSDGSYFMYSKLRVEKKNWVERNSYSCSVVHEGLHNHHTTKSFSRTPGK
modifications: labeled with NT647 RED-NHS fluorescent dye for MST

- Kd (IFNγ [5]): 6.2 nM
- EC50 (read off the curve) (IFNγ [6]): ~9 nM
B3: IFNγR1^QTY-Fc (HUMAN Interferon gamma receptor 1-Fc fusion) (Fc fusion)
chain: EMGTADLGPSSVPTPTNVTIESYNMNPIVYWEYQIMPQVPVFTVEVKNYGVKNSEWIDACINISHHYCNISDHVGDPSNSLWVRVKARVGQKESAYAKSEEFAVCRDGKIGPPKLDIRKEEKQIMIDIFHPSVFVNGDEQEVDYDPETTCYIRVYNVYVRMNGSEIQYKILTQKEDDCDEIQCQLAIPVSSLNSQYCVSAEGVLHVWGVTTEKSKEVCITIFNSSIKGSQWTPTTAAQQQYQTQSQTYTCFYIKKTETSQVAPAHHHHHHHHHHGSKLVDPRGPTIKPCPPCKCPAPNLLGGPSVFIFPPKIKDVLMISLSPIVTCVVVDVSEDDPDVQISWFVNNVEVHTAQTQTHREDYNSTLRVVSALPIQHQDWMSGKEFKCKVNNKDLPAPIERTISKPKGSVRAPQVYVLPPPEEEMTKKQVTLTCMVTDFMPEDIYVEWTNNGKTELNYKNTEPVLDSDGSYFMYSKLRVEKKNWVERNSYSCSVVHEGLHNHHTTKSFSRTPGK
modifications: labeled with NT647 RED-NHS fluorescent dye for MST
